{"source": "paper PMC6598095", "about": "(Journal of Experimental Botany, 2019)", "data": [{"molecular_target": "T1, AtGL3 (F177I) (Arabidopsis thaliana, UniProt Q9FN69 1-637, F177I)", "T1 sequence": "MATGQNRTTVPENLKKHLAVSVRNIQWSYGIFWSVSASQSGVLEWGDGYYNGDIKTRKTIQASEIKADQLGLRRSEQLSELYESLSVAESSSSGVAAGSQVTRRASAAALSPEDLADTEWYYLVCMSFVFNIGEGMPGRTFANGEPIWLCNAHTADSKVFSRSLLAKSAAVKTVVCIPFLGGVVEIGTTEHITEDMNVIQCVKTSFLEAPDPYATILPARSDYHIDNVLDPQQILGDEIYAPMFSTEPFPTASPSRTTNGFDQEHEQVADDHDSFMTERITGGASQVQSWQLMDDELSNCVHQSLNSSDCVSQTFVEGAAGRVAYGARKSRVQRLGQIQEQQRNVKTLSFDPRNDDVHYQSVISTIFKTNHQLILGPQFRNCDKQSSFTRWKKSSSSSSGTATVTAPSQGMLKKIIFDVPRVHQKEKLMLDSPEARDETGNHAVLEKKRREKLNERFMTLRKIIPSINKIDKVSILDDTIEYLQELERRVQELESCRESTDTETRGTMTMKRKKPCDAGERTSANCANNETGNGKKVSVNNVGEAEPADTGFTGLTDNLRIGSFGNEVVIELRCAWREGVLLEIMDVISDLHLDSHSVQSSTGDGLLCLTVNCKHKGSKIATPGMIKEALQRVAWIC", "test": "pull-down", "units": {"percent reduction of binding against wild-type AtGL3": "%"}, "values": [{"binder": "AtPAP2 (natural protein) MEGSSKGLRKGAWTAEEDSLLRLCIDKYGEGKWHQVPLRAGLNRCRKSCRLRWLNYLKPSIKRGRLSNDEVDLLLRLHKLLGNRWSLIAGRLPGRTANDVKNYWNTHLSKKHESSCCKSKMKKKNIISPPTTPVQKIGVFKPRPRSFSVNNGCSHLNGLPEVDLIPSCLGLKKNNVCENSITCNKDDEKDDFVNNLMNGDNMWLENLLGENQEADAIVPEATTAEHGATLAFDVEQLWSLFDGETVELD", "percent reduction of binding against wild-type AtGL3": 30}, {"binder": "AtGL1 (natural protein) MRIRRRDEKENQEYKKGLWTVEEDNILMDYVLNHGTGQWNRIVRKTGLKRCGKSCRLRWMNYLSPNVNKGNFTEQEEDLIIRLHKLLGNRWSLIAKRVPGRTDNQVKNYWNTHLSKKLVGDYSSAVKTTGEDDDSPPSLFITAATPSSCHHQQENIYENIAKSFNGVVSASYEDKPKQELAQKDVLMATTNDPSHYYGNNALWVHDDDFELSSLVMMNFASGDVEYCL", "percent reduction of binding against wild-type AtGL3": 30}, {"binder": "AtPAP1 (natural protein) MEGSSKGLRKGAWTTEEDSLLRQCINKYGEGKWHQVPVRAGLNRCRKSCRLRWLNYLKPSIKRGKLSSDEVDLLLRLHRLLGNRWSLIAGRLPGRTANDVKNYWNTHLSKKHEPCCKIKMKKRDITPIPTTPALKNNVYKPRPRSFTVNNDCNHLNAPPKVDVNPPCLGLNINNVCDNSIIYNKDKKKDQLVNNLIDGDNMWLEKFLEESQEVDILVPEATTTEKGDTLAFDVDQLWSLFDGETVKFD", "percent reduction of binding against wild-type AtGL3": 30}, {"binder": "AtTT2 (natural protein) MGKRATTSVRREELNRGAWTDHEDKILRDYITTHGEGKWSTLPNQAGLKRCGKSCRLRWKNYLRPGIKRGNISSDEEELIIRLHNLLGNRWSLIAGRLPGRTDNEIKNHWNSNLRKRLPKTQTKQPKRIKHSTNNENNVCVIRTKAIRCSKTLLFSDLSLQKKSSTSPLPLKEQEMDQGGSSLMGDLEFDFDRIHSEFHFPDLMDFDGLDCGNVTSLVSSNEILGELVPAQGNLDLNRPFTSCHHRGDDEDWLRDFTC", "percent reduction of binding against wild-type AtGL3": 30}, {"binder": "AtWER (natural protein) MRKKVSSSGDEGNNEYKKGLWTVEEDKILMDYVKAHGKGHWNRIAKKTGLKRCGKSCRLRWMNYLSPNVKRGNFTEQEEDLIIRLHKLLGNRWSLIAKRVPGRTDNQVKNYWNTHLSKKLGIKDQKTKQSNGDIVYQINLPNPTETSEETKISNIVDNNNILGDEIQEDHQGSNYLSSLWVHEDEFELSTLTNMMDFIDGHCF", "percent reduction of binding against wild-type AtGL3": 30}, {"binder": "AtMYB61 (natural protein) not shown", "percent reduction of binding against wild-type AtGL3": 30}]}]}
